IntAct's records for PubMed 20562859

Tests used:
[1] = biological target: T1, fnip1_human FNIP1 (UniProt Q8TF40)
T1 sequence: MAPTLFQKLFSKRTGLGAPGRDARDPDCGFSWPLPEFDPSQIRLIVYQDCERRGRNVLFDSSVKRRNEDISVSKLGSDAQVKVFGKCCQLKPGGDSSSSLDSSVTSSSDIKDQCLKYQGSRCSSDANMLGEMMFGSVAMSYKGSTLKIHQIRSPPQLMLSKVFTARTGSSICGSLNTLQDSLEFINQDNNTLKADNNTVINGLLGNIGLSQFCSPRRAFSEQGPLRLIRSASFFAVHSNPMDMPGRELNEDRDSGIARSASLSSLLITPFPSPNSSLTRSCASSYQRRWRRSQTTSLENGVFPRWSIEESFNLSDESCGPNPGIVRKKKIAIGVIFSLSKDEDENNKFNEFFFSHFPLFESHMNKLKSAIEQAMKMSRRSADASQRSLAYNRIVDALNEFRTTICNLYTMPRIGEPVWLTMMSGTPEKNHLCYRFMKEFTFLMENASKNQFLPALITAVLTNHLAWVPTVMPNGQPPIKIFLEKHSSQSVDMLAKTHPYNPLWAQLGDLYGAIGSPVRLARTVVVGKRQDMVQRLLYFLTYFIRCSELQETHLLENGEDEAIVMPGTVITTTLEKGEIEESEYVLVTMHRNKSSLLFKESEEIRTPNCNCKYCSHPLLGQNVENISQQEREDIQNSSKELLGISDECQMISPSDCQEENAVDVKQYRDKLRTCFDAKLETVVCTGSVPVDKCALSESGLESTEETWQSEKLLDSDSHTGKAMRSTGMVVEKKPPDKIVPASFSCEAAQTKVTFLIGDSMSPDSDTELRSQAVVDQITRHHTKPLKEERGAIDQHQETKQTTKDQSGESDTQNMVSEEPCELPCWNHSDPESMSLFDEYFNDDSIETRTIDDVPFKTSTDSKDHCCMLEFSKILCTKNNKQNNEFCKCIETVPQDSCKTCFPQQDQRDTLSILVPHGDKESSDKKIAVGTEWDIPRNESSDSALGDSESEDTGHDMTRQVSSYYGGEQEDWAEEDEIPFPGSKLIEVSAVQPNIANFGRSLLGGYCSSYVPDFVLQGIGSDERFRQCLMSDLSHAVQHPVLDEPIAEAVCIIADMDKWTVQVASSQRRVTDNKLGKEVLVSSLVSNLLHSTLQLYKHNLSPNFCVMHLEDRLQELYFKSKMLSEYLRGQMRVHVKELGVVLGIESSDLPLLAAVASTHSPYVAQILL

[2] = biological target: T2, rasf5_human RASSF5 (UniProt Q8WWW0)
T2 sequence: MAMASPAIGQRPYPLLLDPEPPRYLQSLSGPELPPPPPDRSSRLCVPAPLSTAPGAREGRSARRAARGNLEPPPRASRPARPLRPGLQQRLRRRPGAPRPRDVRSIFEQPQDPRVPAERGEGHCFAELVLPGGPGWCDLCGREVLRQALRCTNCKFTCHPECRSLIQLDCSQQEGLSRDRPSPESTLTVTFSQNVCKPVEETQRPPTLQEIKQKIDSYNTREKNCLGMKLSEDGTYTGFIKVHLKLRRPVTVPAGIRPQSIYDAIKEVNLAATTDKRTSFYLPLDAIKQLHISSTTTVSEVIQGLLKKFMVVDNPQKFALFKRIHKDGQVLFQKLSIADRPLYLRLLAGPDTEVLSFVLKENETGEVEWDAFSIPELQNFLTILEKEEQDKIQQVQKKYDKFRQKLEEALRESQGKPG

[3] = biological target: T3, atg13_human ATG13 (UniProt O75143)
T3 sequence: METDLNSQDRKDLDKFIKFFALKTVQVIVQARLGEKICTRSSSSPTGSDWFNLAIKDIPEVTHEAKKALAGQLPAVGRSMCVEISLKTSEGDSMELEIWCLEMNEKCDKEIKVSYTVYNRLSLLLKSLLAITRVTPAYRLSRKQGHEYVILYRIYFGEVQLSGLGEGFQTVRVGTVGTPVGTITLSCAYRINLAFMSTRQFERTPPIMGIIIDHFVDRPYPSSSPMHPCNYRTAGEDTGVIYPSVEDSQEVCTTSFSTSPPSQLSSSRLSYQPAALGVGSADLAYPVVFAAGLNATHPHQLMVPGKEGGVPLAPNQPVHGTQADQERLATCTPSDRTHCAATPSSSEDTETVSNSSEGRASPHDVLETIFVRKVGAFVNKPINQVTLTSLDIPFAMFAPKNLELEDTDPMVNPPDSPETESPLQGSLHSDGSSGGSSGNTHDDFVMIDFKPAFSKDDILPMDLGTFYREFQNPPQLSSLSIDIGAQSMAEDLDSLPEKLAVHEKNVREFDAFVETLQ

[4] = biological target: fan_human NSMAF (UniProt Q92636)
Chain of fan_human NSMAF (Q92636 whole entry): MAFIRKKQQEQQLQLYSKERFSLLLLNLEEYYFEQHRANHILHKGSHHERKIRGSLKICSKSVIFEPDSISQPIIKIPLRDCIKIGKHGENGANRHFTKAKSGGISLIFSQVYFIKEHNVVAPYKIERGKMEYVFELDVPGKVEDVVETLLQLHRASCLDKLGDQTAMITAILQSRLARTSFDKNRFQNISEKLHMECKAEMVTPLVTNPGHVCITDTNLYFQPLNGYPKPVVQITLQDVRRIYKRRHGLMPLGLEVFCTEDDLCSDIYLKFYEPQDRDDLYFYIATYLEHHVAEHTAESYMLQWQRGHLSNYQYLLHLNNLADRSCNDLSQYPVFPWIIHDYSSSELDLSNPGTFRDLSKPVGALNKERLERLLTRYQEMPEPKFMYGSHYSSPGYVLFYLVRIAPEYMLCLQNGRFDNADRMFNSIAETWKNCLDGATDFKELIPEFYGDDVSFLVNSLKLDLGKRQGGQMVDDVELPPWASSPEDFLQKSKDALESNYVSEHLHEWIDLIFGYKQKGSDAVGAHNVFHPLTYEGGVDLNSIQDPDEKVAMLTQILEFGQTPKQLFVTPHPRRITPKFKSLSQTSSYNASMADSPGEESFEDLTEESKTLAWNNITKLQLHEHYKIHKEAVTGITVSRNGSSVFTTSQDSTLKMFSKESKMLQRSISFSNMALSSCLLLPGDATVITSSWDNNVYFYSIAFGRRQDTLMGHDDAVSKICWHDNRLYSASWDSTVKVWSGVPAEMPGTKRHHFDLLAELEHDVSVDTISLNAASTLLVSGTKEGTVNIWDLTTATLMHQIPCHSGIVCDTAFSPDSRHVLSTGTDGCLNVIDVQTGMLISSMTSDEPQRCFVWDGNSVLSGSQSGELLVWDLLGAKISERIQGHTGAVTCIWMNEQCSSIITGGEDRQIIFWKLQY

Substance: Microtubule-associated protein 1 light chain 3 beta (Homo sapiens) (from UniProt Q9GZQ8) F52A;L53A
- effect of a mutation on the interaction [1]: increasing interaction
- effect of a mutation on the interaction [2]: increasing interaction

Substance: Microtubule-associated protein 1 light chain 3 beta (Homo sapiens) (from UniProt Q9GZQ8) R69A
- effect of a mutation on the interaction [3]: decreasing interaction
- effect of a mutation on the interaction [4]: disrupting interaction
